Experimental data published in patent publication US20030191083.

Biological target: T1, RNase P protein (SPP, SP protein) (Staphylococcus aureus) (UniProt A8YYS2)
T1 sequence: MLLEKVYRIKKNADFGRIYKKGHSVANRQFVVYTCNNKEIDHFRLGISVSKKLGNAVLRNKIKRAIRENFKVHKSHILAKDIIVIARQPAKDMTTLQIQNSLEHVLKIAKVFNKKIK
Experiment: filter

Sequence: GUUCUGAUAUUUUGGGUAAUCGCUAUAUUAUAUAGAGGAAAGUCCAUGCUCACACAGUCUGAGAUGAUUGUAGUGUUCGUGCUUGAUGAAACAAUAAAUCAAGGCAUUAAUUUGACGGCAAUGAAAUAUCCUAAGUCUUUCGAUAUGGAUAGAGUAAUUUGAAAGUGCCACAGUGACGUAGCUUUUAUAGAAAUAUAAAAGGUGGAACGCGGUAAACCCCUCGAGUGAGCAAUCCAAAUUUGGUAGGAGCACUUGUUUAACGGAAUUCAACGUAUAAACGAGACACACUUCGCGAAAUGAAGUGGUGUACGACAGAUGGUUAUCACCUGAGUACCAGUGUGACUAGUGCACGUGAUGAGUACGAUGGAACAGAACAUGGCUUAUAGAAAUAUCACUACUA [S. aureus RNase P RNA (SP RNA)]
- Kd (20 mM K-Hepes pH 8.0, 0.01% NP40, 400 mM NH4OAc, 10 mM MgCl2, 5% glycerol, at least three experiments): 8 nM
- Kd (binding constant of the complex stated in summary, filter binding and gel shift, differs from 8 nM in p322): 20 nM
